# Laboratory results as given in CN114685670A (SHANGHAI LYOFIE MEDICAL SCIENCE AND TECH LIMITED COMPANY, dated 2022).
# T1: human CLDN18.2 (human, UniProt P56856-2 1-261)
# T1 construct: whole, on cells; also called hCLDN18.2; Claudin 18.2
# T1 sequence (looked up): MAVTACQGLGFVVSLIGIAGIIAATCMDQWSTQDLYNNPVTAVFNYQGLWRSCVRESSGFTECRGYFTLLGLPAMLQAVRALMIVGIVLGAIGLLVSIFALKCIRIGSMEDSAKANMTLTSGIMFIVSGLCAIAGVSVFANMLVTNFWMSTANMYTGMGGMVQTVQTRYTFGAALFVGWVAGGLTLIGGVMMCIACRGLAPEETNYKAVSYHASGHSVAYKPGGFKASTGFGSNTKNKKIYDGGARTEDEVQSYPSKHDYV
# Tests used:
# human CLDN18.2 [1] = target: T1, human CLDN18.2; test: flow cytometry on 18.2-K562 cells, 8-point antibody dilution, Anti-Human IgG FITC detection
# human CLDN18.2 [2] = target: T1, human CLDN18.2; test: flow cytometry, hybridoma supernatant on CHO stable cells
Binder,"抗体亲和力 (affinity from FACS titration, EC50-like) (human CLDN18.2 [1]) [µg/mL]",binding result (human CLDN18.2 [2])
"A8抗体 (as tested in Example 6) (antibody, V domains shown) VH: QVQLQQPGAELVKPGASVKLSCKASGYTFTSYWMHWVRQRPGQGLEWIGMIHPNSGSTNYNGKFKSKATLTVDKSSSTAYMQLSSLTSEDSAVYFCARGGYYGNSLDFWGQGTSLTVSS VL: DIVMTQSPSSLTVTAREKVTMSCKSSQSLLNSGNQKNYLTWYQQKPGQPPKLLIYWASTRESGVPDRFTGSGSGTDFTLTISSVQAEDLAVYYCQNAYSYPFTFGSGTKLEIK",0.675,–
"C18-16-1H1-1A8 (antibody, V domains shown, also called A8抗体; C18-16-1H1-1A8重组抗体) VH: QVQLQQPGAELVKPGASVKLSCKASGYTFTSYWMHWVRQRPGQGLEWIGMIHPNSGSTNYNGKFKSKATLTVDKSSSTAYMQLSSLTSEDSAVYFCARGGYYGNSLDFWGQGTSLTVSS VL: DIVMTQSPSSLTVTAREKVTMSCKSSQSLLNSGNQKNYLTWYQQKPGQPPKLLIYWASTRESGVPDRFTGSGSGTDFTLTISSVQAEDLAVYYCQNAYSYPFTFGSGTKLEIKR",–,binds
